From publication PMC4772129, “nagZ Triggers Gonococcal Biofilm Disassembly” (Scientific Reports, 2016)

Tested on: CC(=O)N[C@H]1[C@H](Oc2ccc([N+](=O)[O-])cc2)O[C@H](CO)[C@@H](O)[C@@H]1O
Assay: purified protein
Details: KPO4 buffer 200 mM, pH 8.0, 37 °C (standard assay)

NagZ (Neisseria gonorrhoeae FA 1090)
Km: 3.2 mM
